In article PMC7497807 (Blood cancer discovery, 2020):
Values belong to the binder of their own block, whether it stands above or below them.

What was measured:
Assay in all cases: fluorescence polarisation
MBP-AF9 = target: MBP-AF9
BCOR (aa 1176–1225)-FITC = target: T1, BCOR (aa 1176–1225)-FITC (UniProt Q6W2J9 1176-1225, fluorescein (printed as BCOR (aa 1176–1225)-FITC))
T1 peptide (looked up): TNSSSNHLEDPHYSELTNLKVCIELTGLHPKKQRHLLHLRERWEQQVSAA

[1] = target: fluorescein-labeled CBX8 peptide (FITC-CBX8) (fluorescein (printed as FITC-CBX8))

Sequence of MBP-AF9 (P42568 whole entry, the tested form may be a part): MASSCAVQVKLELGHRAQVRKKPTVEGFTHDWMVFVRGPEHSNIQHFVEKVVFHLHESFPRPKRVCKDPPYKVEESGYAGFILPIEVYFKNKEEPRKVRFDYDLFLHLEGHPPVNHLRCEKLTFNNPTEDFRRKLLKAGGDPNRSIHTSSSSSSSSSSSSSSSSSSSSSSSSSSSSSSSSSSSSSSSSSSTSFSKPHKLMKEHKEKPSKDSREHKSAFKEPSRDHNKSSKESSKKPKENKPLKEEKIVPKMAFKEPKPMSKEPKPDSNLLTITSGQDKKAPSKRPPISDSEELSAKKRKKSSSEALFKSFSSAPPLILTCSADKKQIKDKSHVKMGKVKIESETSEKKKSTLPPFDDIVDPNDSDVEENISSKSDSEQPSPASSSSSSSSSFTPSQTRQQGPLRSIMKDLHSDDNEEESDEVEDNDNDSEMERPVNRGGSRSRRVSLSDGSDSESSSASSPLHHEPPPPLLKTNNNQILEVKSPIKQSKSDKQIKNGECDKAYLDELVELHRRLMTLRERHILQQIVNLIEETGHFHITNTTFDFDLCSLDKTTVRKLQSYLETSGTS

IC50 (MBP-AF9): 1880 ± 202 nM
Binder: AQGGRPSLIARIPVARILGDPEEE [unlabeled CBX8 WT peptide]

fold tighter binding to MBP-ENL than to MBP-AF9 (BCOR (aa 1176–1225)-FITC): 9 fold | Kd [1]: 112 ± 13 nM
B1: MBP-ENL (domain or fragment)
chain: YTDELVELHRRLMALRERNVLQQIVNLIEETGHFNVTNTTFDFDLFSLDETTVRKLQSCLE
